This data set has as its system MS2 coat protein. Description: apparent KD of MS2 coat protein; designed switch direction (-1 OFF switch, 1 ON switch): -1; higher = weaker reporter binding. The method, boiled down:
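The buffer was Tris-HCl pH 7.5 with KCl, MgCl2, BSA, DTT, tRNA and Tween-20. In it, SNAP-549-labelled MS2 coat protein was titrated in doubling steps from 0.7 or 1.5 nM to 3 µM over chip-bound RNA switches transcribed by stalled E. coli RNA polymerase on Illumina chips. Apparent KD is the per-design median over clusters of curve fits to normalised fluorescence.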

Where [1] appears, read: input ligand: microRNA oligo, concentration not stated.
[2] abbreviates: Eterna round: R95, input ligand: microRNA oligo, concentration not stated.

For the sequence “AUCCGGCAUGUAGGAUAUGGAUCCGAUUAGGAUCCAGAAGGACAUGAGGAUCACCCAUGUACAUGUAAACAGUCAUCACCGGAC [salish99_ExNG1_r04_201] (Eterna round: R96, puzzle: Exclusion NG 1)”, the “apparent KD of MS2 coat protein” value by setting is: (input ligand: FMN 200 uM) 462 nM; under setting [1], 50.2 nM; (input ligand: none) 67.3 nM.

In the case of “AUCGUGCAGCAAAGCUGUACGAGUACAUGAGGAUCACCCAUGUAGGAUAUGGUACGCAAAGCGUGCUAGAAGGAUAUGAGAUUA [Mat - Exclusion NG 3 - Mod of JL - D97] (Eterna round: R96, puzzle: Exclusion NG 3)”, the “apparent KD of MS2 coat protein” value came to 38.1 nM (input ligand: FMN 200 uM), 32.6 nM under setting [1] and 57.7 nM (input ligand: none).

In the case of “AUCGUGCAGCUUUGCUGUACGAGUACAUGAGGAUCACCCAUGUAGGAUAUGGUACGCUUUGCGUGCCAGAAGGACGUGCGUUAG [salish99_ExNG3_r04_003] (Eterna round: R96, puzzle: Exclusion NG 3)”, the “apparent KD of MS2 coat protein” value was 63.2 nM (input ligand: FMN 200 uM), 34.3 nM under setting [1] and 43.7 nM (input ligand: none).

On to “AUCGUGUGAGGAUAUCGAUGUUGGACGUCUAGGUCUAAGCGCGAGAAGGCACAUGAGGAUCACCCAUGUAAUGG [jl-ex4-4.27 ViennaUCT mod] (Eterna round: R97, puzzle: Exclusion 4)”, for which the “apparent KD of MS2 coat protein” value reads like this: (input ligand: FMN 200 uM) 249 nM; (input ligand: none) 910 nM.

Regarding “AUGGGUCCUCACGGAGCUACAUGAGGAUCACCCAUGUGGAUUGAGGAUAUCCACUGCCGACGGCUGGAGAAGGCAGUUUACUGU [Ex NG3 #94] (Eterna round: R96, puzzle: Exclusion NG 3)”, the “apparent KD of MS2 coat protein” value turned out to be 57.5 nM (input ligand: FMN 200 uM), 36 nM under setting [1] and 49.9 nM (input ligand: none).

In the case of “AUGUGAUUGGCUCUGAGACAUGAGGAUCACCCAUGUGGAGCGCAGGAUAUCCGAACCGUGAAGGCGGAGAAGGGCGUCGUGGUA [Zasorequer] (Eterna round: R96, puzzle: Exclusion NG 3)”, the “apparent KD of MS2 coat protein” value (input ligand: FMN 200 uM) is 39.6 nM, the “apparent KD of MS2 coat protein” value under setting [1] was 20.5 nM and the “apparent KD of MS2 coat protein” value (input ligand: none) is 26 nM.

Take “AUGUGGGUAAGAAGGUGAAGAUAGAGCGUACGUUAUGGAACAUGAGGAUCACCCAUGUAGCUUUUUGCUCGUCUUAU [JR_SV3TOV2_Sub033] (puzzle: Sensor v3, turn-off variant 2)”: the “apparent KD of MS2 coat protein” value by setting is: (Eterna round: R95, input ligand: FMN 200 uM) 17.6 nM; under setting [2], 61.8 nM; (Eterna round: R95, input ligand: none) 18.2 nM.

Regarding “AUGUUACUCUGAGGAUAUUGUUUAUUCUUCUCACAUGAGGAUCACCCAUGUUUCCAUGUUAACCGCAAGAAGGCAGUUUUGUUU [JR_ExcNG2_Sub029] (Eterna round: R96, puzzle: Exclusion NG 2)”, the “apparent KD of MS2 coat protein” value reads like this: (input ligand: FMN 200 uM) 46.1 nM; under setting [1], 24.5 nM; (input ligand: none) 36.3 nM.

On to “AUUAAUCAGCAGGAUAUAAGUAUCUGAAGGUGGUUAGAAGGGCUGACAUGAGGAUCACCCAUGUGCUCUUCGUG [Vevetigeat] (puzzle: Exclusion 6)”, for which, under setting [2], the “apparent KD of MS2 coat protein” value was found to be 12.4 nM.

“AUUAUAAAUGUAGGAUAUCUGCACGUGUAGUGCAGAGAAGGACAUGAGGAUCACCCAUGUAGAUCAAUAAUAAUUAAUUUAAUU [ENG1/5-B3] (Eterna round: R96, puzzle: Exclusion NG 1)”: the “apparent KD of MS2 coat protein” value reads like this: (input ligand: FMN 200 uM) 223 nM; under setting [1], 33.4 nM; (input ligand: none) 49.2 nM.

On to “AUUAUGUUAGGAUAUGCUUAUGGUGGAUAGUCCAGUAUGGUGCAGAAGGGACAUGAGGAUCACCCAUGUGCUGA [EX4 #32] (Eterna round: R97, puzzle: Exclusion 4)”, for which the “apparent KD of MS2 coat protein” value (input ligand: FMN 200 uM) was 50.9 nM and the “apparent KD of MS2 coat protein” value (input ligand: none) worked out at 52.8 nM.

“AUUGAAUGAAACCUCUAAUACAUGAGGAUCACCCAUGUUAUCGAGGAUAUGCAGAAUAGAUUAGAGCAGAAGGCGAAGUAAUAU [JR_ExcNG3_Sub024] (Eterna round: R96, puzzle: Exclusion NG 3)”: the “apparent KD of MS2 coat protein” value runs as follows: (input ligand: FMN 200 uM) 17.7 nM; under setting [1], 9.67 nM; (input ligand: none) 12.8 nM.

“AUUGACUGAGGAUAUUGUACUGCUGACAUGAGGAUCACCCAUGUAUGUUAACUCGGCCGUCGAGAAGGCAGAAAUG [BotMod 21 - Jieux - Exclusion 5] (Eterna round: R97, puzzle: Exclusion 5)”: the “apparent KD of MS2 coat protein” value runs as follows: (input ligand: FMN 200 uM) 18.4 nM; (input ligand: none) 34.8 nM.

Regarding “AUUGAUGUUGAGGAUAUGCUUUUAUUUAUUCUUGCAGAAGGCGAUACAUGAGGAUCACCCAUGUUCAUGGAAGU [JR_E6_Sub091] (puzzle: Exclusion 6)”, under setting [2], the “apparent KD of MS2 coat protein” value was 30.7 nM.

For the sequence “AUUGGUUUGCGAGGAUAUGCUAAUAGUAAGUAUGCAGAAGGCGCGUUACAUAGAACCUCUAGUUACAUGAGGAUCACCCAUGUU [JR_ExcNG1_Sub038] (Eterna round: R96, puzzle: Exclusion NG 1)”, under setting [1], the “apparent KD of MS2 coat protein” value was 40.9 nM.

Regarding “AUUGUUUAUGUAGGAUAUGCCUGGCGUGCCUUUGCAGAAGGACAUGAGGAUCACCCAUGUAUUGCGGUCUGCGUUCAGAUCGCA [salish99_ExNG1_r4_032] (Eterna round: R96, puzzle: Exclusion NG 1)”, the “apparent KD of MS2 coat protein” value under setting [1] is 25 nM.

As for “AUUUAAUUUAGCGAGAUCACAUGAGGAUCACCCAUGUAUAUAUAGGAUAUCAGCUCGAUUAGAGCUGAGAAGGAUAUAUACCGC [ExNG3/7-A1] (Eterna round: R96, puzzle: Exclusion NG 3)”, the “apparent KD of MS2 coat protein” value reads like this: (input ligand: FMN 200 uM) 170 nM; under setting [1], 98.7 nM; (input ligand: none) 82 nM.

For “AUUUAGAGAGGAUAUAUAAAGUGAAACAUGAGGAUCACCCAUGUAAUUUUAUGGAUGUAAAUAGAAGGCUCAUUUU [Mat - Exclusion 5 - JL mod - D3] (puzzle: Exclusion 5)”, the “apparent KD of MS2 coat protein” value under setting [2] turned out to be 36.5 nM.

For the sequence “AUUUAGUGAGGAUAUGGUAACGUUUACAUGAGGAUCACCCAUGUUUCAUGGGACUAGAGACUAGAAGGCACUAACG [JR_Ex5_Sub029] (Eterna round: R97, puzzle: Exclusion 5)”, the “apparent KD of MS2 coat protein” value was found to be 291 nM (input ligand: FMN 200 uM) and 306 nM (input ligand: none).

On to “AUUUUAAUAUAGGAUAUCGAAUUUAUUAAUUAUCGAGAAGGAUAAACAUGAGGAUCACCCAUGUGGUAUCAUGG [Mat - Exclusion 6 - JL Mod - D38] (puzzle: Exclusion 6)”, for which, under setting [2], the “apparent KD of MS2 coat protein” value came to 226 nM.

Take “AUUUUGUCAGGAUAUUAGUAGUAAAUAAAUAAAAUUAUUACUGAGAAGGGACAUGAGGAUCACCCAUGUGUCUU [Salish 062 v9] (Eterna round: R97, puzzle: Exclusion 4)”: the “apparent KD of MS2 coat protein” value by setting is: (input ligand: FMN 200 uM) 39.5 nM; (input ligand: none) 18.3 nM.

Regarding “CAAACACUGGUCCAAGCACACAUGAGGAUCACCCAUGUCGCCACAUAGGCGCCGGGAAUUAAGCUUCCGUUCGUCUG [Eternabot (L2) Solution 14] (Eterna round: R97, puzzle: Sensor, turn-off variant 1)”, the “apparent KD of MS2 coat protein” value (input ligand: FMN 200 uM) was 113 nM and the “apparent KD of MS2 coat protein” value (input ligand: none) was determined as 150 nM.

Consider “CAAAGUUGGUAAGGAUAUCCCACAUUAUUCUGACCCGUGCAAGCUACAUGAGGAUCACCCAUGUGGGAGAAGGUGCGUUAAAGA [Design 1] (Eterna round: R96, puzzle: Exclusion NG 2)”, for which the “apparent KD of MS2 coat protein” value is 93.4 nM (input ligand: FMN 200 uM), 52 nM under setting [1] and 94.3 nM (input ligand: none).

For the sequence “CAAAGUUGGUAAGGAUAUCCUACAUUAUUCUGACCCGUGCAAGCUACAUGAGGAUCACCCAUGUGGGAGAAGGUGCGUUAAAGU [Design 3] (Eterna round: R96, puzzle: Exclusion NG 2)”, the “apparent KD of MS2 coat protein” value reads like this: (input ligand: FMN 200 uM) 23.4 nM; under setting [1], 17.4 nM; (input ligand: none) 21.7 nM.

For “CAACACUGAGGAUAUGCUCGGCCGGUUCUCCGUGCCCAAGUACUUGAGGAUCACCCAAGUAGAAGGCAGUAAAA [Diedar] (Eterna round: R97, puzzle: Exclusion 2)”, the “apparent KD of MS2 coat protein” value is, setting by setting: (input ligand: FMN 200 uM) 18.1 nM; (input ligand: none) 16 nM.

With “CAACUGUGAGGAUAUGGUGAGUAGUGCCUGAGCGCUGCUCACCAGAAGGCACAUGAGGAUCACCCAUGUAUGAC [JL-ex4-2.02 denovo] (puzzle: Exclusion 4)”, the “apparent KD of MS2 coat protein” value under setting [2] amounted to 38.3 nM.

As to “CAAUAGGGAGGAUAUCCAAUAUAUGACAUGAGGAUCACCCAUGUUUCCACUCGUACCUCCGGAGAAGGCCCAUAAG [Ex5 #6] (Eterna round: R97, puzzle: Exclusion 5)”, the “apparent KD of MS2 coat protein” value runs as follows: (input ligand: FMN 200 uM) 21.3 nM; (input ligand: none) 24.1 nM.

Regarding “CAAUUCAGAGGAUAUGCGCAUAGAUAAGACUUUUUUUCUUAACAUGAGGAUCACCCAUGUAGAAGGCUGUAACC [Ex2 #63] (Eterna round: R97, puzzle: Exclusion 2)”, the “apparent KD of MS2 coat protein” value (input ligand: FMN 200 uM) came to 19.8 nM and the “apparent KD of MS2 coat protein” value (input ligand: none) is 18.2 nM.

Take “CACAACAGAGGAUAUACAUGAGGAUCACCCAUGUGUUCCAGCUAGGAGACUAGCAAGUGUAGAAGGCUGUUGUG [Mat - Exclusion 3 - JL Mod - D10] (Eterna round: R97, puzzle: Exclusion 3)”: the “apparent KD of MS2 coat protein” value reads like this: (input ligand: FMN 200 uM) 269 nM; (input ligand: none) 501 nM.

“CACCGGUGAGACAACAUGAGGAUCACCCAUGUGAACAGCUCACAGGAUAUCCAGGCACGAAAGAAGGAGAAGGGUGGCUGACUC [Veuson] (Eterna round: R96, puzzle: Exclusion NG 3)”: the “apparent KD of MS2 coat protein” value by setting is: (input ligand: FMN 200 uM) 17.2 nM; under setting [1], 13.6 nM; (input ligand: none) 17.4 nM.

Take “CACCGUUAACUAGGAUAUAGUACAUGAGGAUCACCCAUGUAAUAAAUGAGAAUUUCGGAUGUAUGCUAGAAGGAGUAAAUCGGC [Ostricism 48 - Jieux - Exclusion NG 2] (Eterna round: R96, puzzle: Exclusion NG 2)”: under setting [1], the “apparent KD of MS2 coat protein” value came out at 45.5 nM.

For the origin of these results see the supplement of paper PMC9170038.
